T1: human beta-Klotho (KLB) (human, UniProt Q86Z14 53-997)
T1 construct: bought protein, used as analyte in the off-rate screening; also called human KLB; β-Klotho
T1 sequence (looked up): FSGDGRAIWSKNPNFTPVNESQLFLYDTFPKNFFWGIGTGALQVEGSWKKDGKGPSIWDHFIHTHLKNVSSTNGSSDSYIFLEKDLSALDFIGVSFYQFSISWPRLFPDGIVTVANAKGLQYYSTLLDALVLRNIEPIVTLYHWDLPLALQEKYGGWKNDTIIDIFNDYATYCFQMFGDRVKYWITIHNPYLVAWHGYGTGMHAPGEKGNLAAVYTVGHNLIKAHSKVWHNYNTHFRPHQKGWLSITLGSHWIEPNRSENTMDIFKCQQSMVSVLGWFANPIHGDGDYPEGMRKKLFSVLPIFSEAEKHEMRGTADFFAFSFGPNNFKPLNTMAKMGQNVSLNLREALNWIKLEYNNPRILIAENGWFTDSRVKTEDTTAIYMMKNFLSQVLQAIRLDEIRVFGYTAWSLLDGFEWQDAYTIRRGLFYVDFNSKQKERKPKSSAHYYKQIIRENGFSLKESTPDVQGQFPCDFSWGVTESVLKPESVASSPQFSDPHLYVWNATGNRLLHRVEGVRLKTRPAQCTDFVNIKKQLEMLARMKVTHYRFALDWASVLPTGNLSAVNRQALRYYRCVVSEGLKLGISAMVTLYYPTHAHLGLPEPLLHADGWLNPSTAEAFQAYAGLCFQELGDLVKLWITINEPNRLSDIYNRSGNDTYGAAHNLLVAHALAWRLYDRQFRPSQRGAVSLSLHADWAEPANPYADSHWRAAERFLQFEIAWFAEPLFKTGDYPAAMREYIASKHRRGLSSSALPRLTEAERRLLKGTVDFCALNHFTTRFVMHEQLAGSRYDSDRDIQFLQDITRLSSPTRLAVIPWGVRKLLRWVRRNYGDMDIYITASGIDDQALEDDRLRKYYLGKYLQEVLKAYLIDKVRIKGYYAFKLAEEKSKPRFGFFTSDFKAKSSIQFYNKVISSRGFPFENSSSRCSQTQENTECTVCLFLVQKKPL

B1: 16H7 variant with light chain substitution P54S (antibody, V domains shown)
VH: not shown
VL: SYVLTQPPSVSVAPGQTARITCGGNNIGSESVHWYQQKPGQAPVLVVYDDSDRSSGIPERFSGSNSGNTATLTISRVEAGDEADYYCQVWDGNSDHVVFGGGTKLTVLG
B2: 16H7 variant with light chain substitution R53C (antibody, V domains shown)
VH: not shown
VL: SYVLTQPPSVSVAPGQTARITCGGNNIGSESVHWYQQKPGQAPVLVVYDDSDCPSGIPERFSGSNSGNTATLTISRVEAGDEADYYCQVWDGNSDHVVFGGGTKLTVLG
B3: 16H7 variant with light chain substitution P54T (antibody, V domains shown)
VH: not shown
VL: SYVLTQPPSVSVAPGQTARITCGGNNIGSESVHWYQQKPGQAPVLVVYDDSDRTSGIPERFSGSNSGNTATLTISRVEAGDEADYYCQVWDGNSDHVVFGGGTKLTVLG
B4: 16H7 variant with light chain substitution R53H (antibody, V domains shown)
VH: not shown
VL: SYVLTQPPSVSVAPGQTARITCGGNNIGSESVHWYQQKPGQAPVLVVYDDSDHPSGIPERFSGSNSGNTATLTISRVEAGDEADYYCQVWDGNSDHVVFGGGTKLTVLG
B5: 16H7 variant with light chain substitution R53K (antibody, V domains shown)
VH: not shown
VL: SYVLTQPPSVSVAPGQTARITCGGNNIGSESVHWYQQKPGQAPVLVVYDDSDKPSGIPERFSGSNSGNTATLTISRVEAGDEADYYCQVWDGNSDHVVFGGGTKLTVLG
B6: 16H7 variant with light chain substitution P54Y (antibody, V domains shown)
VH: not shown
VL: SYVLTQPPSVSVAPGQTARITCGGNNIGSESVHWYQQKPGQAPVLVVYDDSDRYSGIPERFSGSNSGNTATLTISRVEAGDEADYYCQVWDGNSDHVVFGGGTKLTVLG
B7: 16H7 variant with light chain substitution R53I (antibody, V domains shown)
VH: not shown
VL: SYVLTQPPSVSVAPGQTARITCGGNNIGSESVHWYQQKPGQAPVLVVYDDSDIPSGIPERFSGSNSGNTATLTISRVEAGDEADYYCQVWDGNSDHVVFGGGTKLTVLG
B8: 16H7 variant with light chain substitution R53A (antibody, V domains shown)
VH: not shown
VL: SYVLTQPPSVSVAPGQTARITCGGNNIGSESVHWYQQKPGQAPVLVVYDDSDAPSGIPERFSGSNSGNTATLTISRVEAGDEADYYCQVWDGNSDHVVFGGGTKLTVLG
B9: 16H7 variant with light chain substitution R53M (antibody, V domains shown)
VH: not shown
VL: SYVLTQPPSVSVAPGQTARITCGGNNIGSESVHWYQQKPGQAPVLVVYDDSDMPSGIPERFSGSNSGNTATLTISRVEAGDEADYYCQVWDGNSDHVVFGGGTKLTVLG
B10: 16H7 variant with light chain substitution P54V (antibody, V domains shown)
VH: not shown
VL: SYVLTQPPSVSVAPGQTARITCGGNNIGSESVHWYQQKPGQAPVLVVYDDSDRVSGIPERFSGSNSGNTATLTISRVEAGDEADYYCQVWDGNSDHVVFGGGTKLTVLG
B11: 16H7 variant with light chain substitution P54W (antibody, V domains shown)
VH: not shown
VL: SYVLTQPPSVSVAPGQTARITCGGNNIGSESVHWYQQKPGQAPVLVVYDDSDRWSGIPERFSGSNSGNTATLTISRVEAGDEADYYCQVWDGNSDHVVFGGGTKLTVLG
B12: 16H7 variant with light chain substitution R53L (antibody, V domains shown)
VH: not shown
VL: SYVLTQPPSVSVAPGQTARITCGGNNIGSESVHWYQQKPGQAPVLVVYDDSDLPSGIPERFSGSNSGNTATLTISRVEAGDEADYYCQVWDGNSDHVVFGGGTKLTVLG

What was measured:
[1] = molecular target: human FGFR1c/KLB receptor complex on iLite FGF21 Assay Ready Cells (human, UniProt P11362 22-822; Q86Z14 1-1044); test: cell-based or functional assay
Sequence of human FGFR1c/KLB receptor complex on iLite FGF21 Assay Ready Cells (P11362 22-822, chain 1 of 2): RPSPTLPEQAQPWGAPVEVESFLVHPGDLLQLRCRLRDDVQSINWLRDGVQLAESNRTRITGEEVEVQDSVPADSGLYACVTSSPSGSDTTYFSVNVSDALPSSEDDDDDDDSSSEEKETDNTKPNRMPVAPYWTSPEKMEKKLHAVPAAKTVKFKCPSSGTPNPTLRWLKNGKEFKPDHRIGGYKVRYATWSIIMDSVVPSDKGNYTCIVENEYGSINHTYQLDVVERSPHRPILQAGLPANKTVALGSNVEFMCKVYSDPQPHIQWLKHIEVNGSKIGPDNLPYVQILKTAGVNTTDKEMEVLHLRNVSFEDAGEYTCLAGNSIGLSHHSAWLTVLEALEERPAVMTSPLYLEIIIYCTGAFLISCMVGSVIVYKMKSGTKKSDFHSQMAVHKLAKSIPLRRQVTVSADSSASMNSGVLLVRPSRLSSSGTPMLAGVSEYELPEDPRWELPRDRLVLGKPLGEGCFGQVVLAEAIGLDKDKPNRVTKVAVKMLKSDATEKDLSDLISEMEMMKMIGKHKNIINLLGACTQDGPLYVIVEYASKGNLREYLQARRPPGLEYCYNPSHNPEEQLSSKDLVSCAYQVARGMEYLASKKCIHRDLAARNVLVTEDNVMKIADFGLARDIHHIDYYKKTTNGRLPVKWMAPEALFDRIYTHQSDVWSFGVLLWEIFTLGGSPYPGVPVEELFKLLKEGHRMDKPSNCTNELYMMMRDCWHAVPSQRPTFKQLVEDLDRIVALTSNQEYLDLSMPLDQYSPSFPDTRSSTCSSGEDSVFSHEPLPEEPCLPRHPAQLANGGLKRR
Sequence of human FGFR1c/KLB receptor complex on iLite FGF21 Assay Ready Cells (Q86Z14 whole entry, chain 2 of 2): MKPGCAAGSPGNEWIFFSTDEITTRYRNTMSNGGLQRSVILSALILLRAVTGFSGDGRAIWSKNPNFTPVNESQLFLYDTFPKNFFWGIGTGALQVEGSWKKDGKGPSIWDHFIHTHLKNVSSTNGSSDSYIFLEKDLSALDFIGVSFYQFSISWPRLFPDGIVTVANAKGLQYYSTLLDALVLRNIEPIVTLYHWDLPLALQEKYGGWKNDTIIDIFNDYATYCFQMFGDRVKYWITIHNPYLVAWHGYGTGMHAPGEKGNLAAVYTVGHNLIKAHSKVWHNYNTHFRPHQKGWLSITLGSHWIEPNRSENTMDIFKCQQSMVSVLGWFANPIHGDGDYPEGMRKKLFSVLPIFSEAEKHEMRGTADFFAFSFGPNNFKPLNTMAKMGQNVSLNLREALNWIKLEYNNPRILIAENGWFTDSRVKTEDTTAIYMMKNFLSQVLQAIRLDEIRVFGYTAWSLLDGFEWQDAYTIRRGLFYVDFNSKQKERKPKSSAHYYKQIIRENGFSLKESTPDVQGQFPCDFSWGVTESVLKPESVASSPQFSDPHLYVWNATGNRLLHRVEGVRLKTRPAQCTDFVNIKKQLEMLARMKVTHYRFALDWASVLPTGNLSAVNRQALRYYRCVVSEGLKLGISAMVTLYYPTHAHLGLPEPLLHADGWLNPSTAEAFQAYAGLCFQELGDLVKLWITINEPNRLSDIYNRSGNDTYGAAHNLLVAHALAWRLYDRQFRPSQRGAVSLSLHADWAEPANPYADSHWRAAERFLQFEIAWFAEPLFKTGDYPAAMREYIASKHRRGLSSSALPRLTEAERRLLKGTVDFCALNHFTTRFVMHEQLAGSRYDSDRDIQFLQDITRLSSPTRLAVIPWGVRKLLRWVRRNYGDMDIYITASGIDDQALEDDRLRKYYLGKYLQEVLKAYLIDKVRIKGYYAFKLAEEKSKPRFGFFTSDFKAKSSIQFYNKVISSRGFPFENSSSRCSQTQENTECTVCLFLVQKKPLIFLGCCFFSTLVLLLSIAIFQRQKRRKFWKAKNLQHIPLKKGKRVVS

[2] = molecular target: T1, human beta-Klotho (KLB); test: BLI off-rate screening, mAb captured, KLB analyte;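 also: Off-rate taken from the dissociation phase, biosensors held in D-PBS with 0.1% BSA over 1800 s, antibody supernatants diluted to 25 µg/mL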

| Binder | Mean E max (%) [1] [%] | Mean EC50 [1] [nM] | koff [2] [s⁻¹] |
| --- | --- | --- | --- |
| B1 | 102 | 0.103 | 7.9e-05 |
| B2 | 107 | 0.147 | 0.00044 |
| B3 | 108 | 0.113 | 0.00018 |
| B4 | 103 | 0.153 | 0.00015 |
| B5 | 98 | 0.114 | 4e-05 |
| B6 | 110 | 0.15 | 8.3e-05 |
| B7 | 100 | 0.151 | 1.7e-05 |
| B8 | 89 | 0.132 | 0.0002 |
| B9 | 95 | 0.099 | 0.00018 |
| B10 | 109 | 0.11 | 4.1e-05 |
| B11 | 98 | 0.091 | 0.00017 |
| B12 | 106 | 0.151 | 2e-05 |

Reference: US20220010021A1 (Sanofi, published 2022)
